Experiment [1] addresses T1, HDAC1 of mouse Treg cells (mouse, UniProt O09106 1-482).
T1 construct: also called HDAC1 protein
Briefly: immunoprecipitation of endogenous Foxp3 from Ikzf1-expressing mouse Treg cells, Simple Western.

A further experiment addresses T2, Flag-IkΔE5 (Mus musculus, UniProt Q03267 1-517, limits assumed).
T2 construct: Forcedly expressed in HEK293T cells; also called ΔE5 variant; Ikzf1ΔE5; not shown: Flag tag
Briefly: co-immunoprecipitation with anti-Flag-M2 antibody from HEK293T lysate, Western blot with anti-c-Myc. In general terms: A western blot detects proteins with antibodies after separation by electrophoresis.

T2 sequence (Q03267 other isoform, or with tags, fused parts or gaps mutant limits assumed): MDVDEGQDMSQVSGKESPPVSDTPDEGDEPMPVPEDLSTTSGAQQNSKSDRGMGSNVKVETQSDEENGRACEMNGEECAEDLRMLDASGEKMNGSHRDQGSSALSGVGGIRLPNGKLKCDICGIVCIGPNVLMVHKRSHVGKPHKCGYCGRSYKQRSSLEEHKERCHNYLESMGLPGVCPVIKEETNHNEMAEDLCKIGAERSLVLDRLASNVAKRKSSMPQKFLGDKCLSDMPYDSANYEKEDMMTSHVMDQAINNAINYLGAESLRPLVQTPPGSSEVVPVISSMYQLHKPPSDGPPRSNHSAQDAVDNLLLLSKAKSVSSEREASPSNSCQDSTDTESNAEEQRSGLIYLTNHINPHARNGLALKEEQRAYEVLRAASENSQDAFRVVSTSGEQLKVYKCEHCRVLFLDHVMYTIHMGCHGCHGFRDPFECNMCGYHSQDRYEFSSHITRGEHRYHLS
T1 sequence (O09106 whole entry): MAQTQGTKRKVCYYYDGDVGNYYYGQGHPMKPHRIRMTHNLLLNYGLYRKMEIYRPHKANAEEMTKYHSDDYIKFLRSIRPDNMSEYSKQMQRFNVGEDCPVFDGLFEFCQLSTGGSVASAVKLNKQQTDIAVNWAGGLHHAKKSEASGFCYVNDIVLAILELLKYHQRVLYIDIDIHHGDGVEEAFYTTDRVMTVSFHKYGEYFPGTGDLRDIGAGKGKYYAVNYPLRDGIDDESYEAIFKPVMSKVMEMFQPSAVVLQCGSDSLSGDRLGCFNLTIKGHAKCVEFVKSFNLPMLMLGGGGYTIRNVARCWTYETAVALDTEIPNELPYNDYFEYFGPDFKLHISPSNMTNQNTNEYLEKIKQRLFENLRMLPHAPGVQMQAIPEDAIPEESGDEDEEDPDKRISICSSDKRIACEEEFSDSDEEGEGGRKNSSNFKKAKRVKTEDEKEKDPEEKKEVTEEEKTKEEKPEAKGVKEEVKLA

B1: endogenous Foxp3 of mouse Treg cells (other, UniProt Q99JB6 1-429, looked up)
chain: MPNPRPAKPMAPSLALGPSPGVLPSWKTAPKGSELLGTRGSGGPFQGRDLRSGAHTSSSLNPLPPSQLQLPTVPLVMVAPSGARLGPSPHLQALLQDRPHFMHQLSTVDAHAQTPVLQVRPLDNPAMISLPPPSAATGVFSLKARPGLPPGINVASLEWVSREPALLCTFPRSGTPRKDSNLLAAPQGSYPLLANGVCKWPGCEKVFEEPEEFLKHCQADHLLDEKGKAQCLLQREVVQSLEQQLELEKEKLGAMQAHLAGKMALAKAPSVASMDKSSCCIVATSTQGSVLPAWSAPREAPDGGLFAVRRHLWGSHGNSSFPEFFHNMDYFKYHNMRPPFTYATLIRWAILEAPERQRTLNEIYHWFTRMFAYFRNHPATWKNAIRHNLSLHKCFVRVESEKGAVWTVDEFEFRKKRSQRPNKCSNPCP
notes: Immunoprecipitated with anti-Foxp3 antibody from Treg cell lysates
For the molecule B1, the binding result in experiment [1] is on record as “binds”.

B2: Myc-Foxp3 (other, UniProt Q99JB6 1-429, looked up)
chain: MPNPRPAKPMAPSLALGPSPGVLPSWKTAPKGSELLGTRGSGGPFQGRDLRSGAHTSSSLNPLPPSQLQLPTVPLVMVAPSGARLGPSPHLQALLQDRPHFMHQLSTVDAHAQTPVLQVRPLDNPAMISLPPPSAATGVFSLKARPGLPPGINVASLEWVSREPALLCTFPRSGTPRKDSNLLAAPQGSYPLLANGVCKWPGCEKVFEEPEEFLKHCQADHLLDEKGKAQCLLQREVVQSLEQQLELEKEKLGAMQAHLAGKMALAKAPSVASMDKSSCCIVATSTQGSVLPAWSAPREAPDGGLFAVRRHLWGSHGNSSFPEFFHNMDYFKYHNMRPPFTYATLIRWAILEAPERQRTLNEIYHWFTRMFAYFRNHPATWKNAIRHNLSLHKCFVRVESEKGAVWTVDEFEFRKKRSQRPNKCSNPCP
notes: Forcedly expressed in HEK293T cells; not shown: Myc tag
For B2, the binding result with Flag-IkΔE5 is “no binding”.

(Values after patent EP4556018A1 (OSAKA UNIVERSITY, dated 2025).)
